Results as given in US20100184959A1 (AstraZeneca / MedImmune, published 2010).

Each binder was assayed against T1, human C1q (human, UniProt P02745 23-245; P02746 28-253; P02747 29-245) (assay: RIA, 35S-labelled Fc on coated C1q).
T1 construct: Human C1q (Sigma) in the ELISA; hC1q coated at 100 nM in the RIA; also called hC1q
From the text: IgG1 Fc variants arising from round three outputs of Fcγ1 selections against human C1q using ribosome display, were screened for binding using the primary RIA as described in Jermutus et al. (2001, PNAS 98(1): 75-80). In brief, the Fc region from the plasmid for each variant (96 well format) was PCR amplified to produce a linear DNA template. This template was gel purified and reamplified attaching the T7 promoter sequence for T7 directed in vitro transcription and the resulting mRNA purified on G25 Sephadex columns. For each variant, in vitro translations in the presence of 35S-labelled methionine was performed at 37° C. for 40 mins. The translations were stopped with PBS with 0.05% Tween 20. The translation mixture was incubated on a plate coated with 100 nM hC1q for 2 hours at room temperature. Plates were washed three times in PBS with 0.05% Tween 20 and three times in PBS. The remaining radioactivity was eluted with 0.1M triethylamine and quantified by liquid scintillation counting.

T1 sequence (P02745 23-245 limits assumed, chain 1 of 3): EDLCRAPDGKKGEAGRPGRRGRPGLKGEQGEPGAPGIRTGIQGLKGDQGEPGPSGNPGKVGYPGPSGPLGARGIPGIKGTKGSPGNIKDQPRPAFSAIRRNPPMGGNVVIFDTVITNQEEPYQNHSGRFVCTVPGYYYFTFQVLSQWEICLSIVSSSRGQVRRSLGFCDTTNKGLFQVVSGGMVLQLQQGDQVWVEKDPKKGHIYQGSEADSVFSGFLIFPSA
T1 sequence (P02746 28-253 limits assumed, chain 2 of 3): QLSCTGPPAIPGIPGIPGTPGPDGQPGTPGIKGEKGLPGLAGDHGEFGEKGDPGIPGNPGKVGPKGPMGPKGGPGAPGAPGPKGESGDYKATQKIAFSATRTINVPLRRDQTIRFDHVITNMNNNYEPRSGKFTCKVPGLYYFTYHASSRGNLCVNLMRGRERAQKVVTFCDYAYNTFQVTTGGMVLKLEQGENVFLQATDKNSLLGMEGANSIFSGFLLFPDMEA
T1 sequence (P02747 29-245 limits assumed, chain 3 of 3): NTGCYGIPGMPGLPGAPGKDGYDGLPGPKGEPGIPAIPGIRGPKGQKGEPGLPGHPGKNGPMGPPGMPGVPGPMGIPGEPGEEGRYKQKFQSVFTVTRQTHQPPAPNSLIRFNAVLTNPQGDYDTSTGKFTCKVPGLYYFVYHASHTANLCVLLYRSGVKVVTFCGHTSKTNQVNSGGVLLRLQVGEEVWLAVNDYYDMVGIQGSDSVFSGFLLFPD

Binder	RIA for C1q [fold over wild-type]
Fc polypeptide variant 3C11 (Fcγ1, in vitro translated) (other, Fc region only, in vitro translated with 35S-methionine for RIA) AHTCPPCPAPELLGGPSVFLFPPKPKDTLMISRTPEVTCVVVDVSHEDPEVKFNWYVDGVEVHNAKTKPREEQYNSTYRVVSVLTVLHQDWLNGKEYKCKVSNKALPAPIEKTISKAKGQPREPRVYTLPPSREEMTKYQVSLTCLVKGFYPSDIAVEWESNGQPENNYKTTPPVLDSDGSFFLYSKLTVDKSRWQQGNVFSCSVMHEALHNHYTQRSLSLSPGK	1.2
Fc polypeptide variant 2C06 (Fcγ1, in vitro translated) (other, Fc region only, in vitro translated with 35S-methionine for RIA) AHTCPPCPAPELLGGPSVFLFPPKPKDTLMISRTPEVTCVVVDVSHEDPEVKFNWYVDGVGVHNAKTKPREEQYNSTYRVVSVLTVLHQDWLKGKEYKCKVSNKALPAPIGKTISKAKGQPQEPQVYTLPPSREEMTKNQVSPTCLVKGFYPSDIAVEWESNGQPENNYKTTPPVLDSDGSFFLYSKLTVDKSRWQQGNVFSCSVMHEALHNHYTQKSLTLSPGK	1.4

Now from value to binder:

RIA for C1q [fold over wild-type]	Binder
2.4	Fc polypeptide variant 2A11 (Fcγ1, in vitro translated) (other, Fc region only, in vitro translated with 35S-methionine for RIA) AHTCPPCPAPELLGGPSVFLFPPKPKDTLMISRTPEVTYVVVDVSHEDPEVKFNWYVDGVEVHNAKTEPREEQYNSTYRVVSVFTVLHRDWLNGKEYKCKVSNKALPAPIGKTISKAKGQPREPQVYTLPPSREEMTKNQVSLTCLVKGFYPSDIAVEWESNGQPENNYKTTPPVLDSDGSFFLYSKLTVDKSRWQQGNVFSCSVMHEALHNHYTLKSLSLSPGK
1.2	Fc polypeptide variant 2H06 (Fcγ1, in vitro translated) (other, Fc region only, in vitro translated with 35S-methionine for RIA) AHTCPPCPAPELLGGPSVFLFPPKPKDTLMISRTPEVTCVVVDVSHGDPEVKFNWHVDGVEVHNAKTKPREEQYNSTYRVVSVLTVLHQDWLNGKEYKCKVSSKALPAPIEKTISKAKGQPREPQVYTLPPSREEMTKNQVSLTCLVRGFYPSDIAVEWESNGQPENNYKTTPPVLDSDGSFFLYSKLTVDKSRWQQGNVFSCSVMHEALHNHYTQKSLSLSPGK

Each binder was assayed against T2, human FcγRIIIa V158 allotype, extracellular domain (human, UniProt P08637 17-208) (assay: RIA, 35S-labelled Fc on coated receptor).
T2 construct: extracellular domain; expressed in HEK-EBNA cells; also called hFcγRIIIa; CD16; not shown: Flag10His tag of the vector
From the text: Fc polypeptide variants were screened for binding to FcγRIIIa using a RIA (radio immunoassay) as described in Jermutus et al. (2001, PNAS 98(1): 75-80). The Fc region from the plasmid for each variant was PCR amplified to produce a linear DNA template. This template was purified and a T7 promoter sequence attached at the 5′ end to enable in vitro transcription. The resulting mRNA was purified using G25 Sephadex™ columns. For each variant, in vitro translations in the presence of 35S-labelled methionine were set up at 37° C. for 40 min. The translations were stopped using PBS with 0.05% Tween 20. The translation mixture was added to a plate coated with 100 nM hFcγRIIIa and incubated for 2 hours at room temperature. The plates were washed three times in PBS with 0.05% Tween 20 and three times in PBS. The bound protein was eluted with 0.1M triethylamine and the radiolabel quantified by liquid scintillation counting.

T2 sequence (P08637 17-208 F176V): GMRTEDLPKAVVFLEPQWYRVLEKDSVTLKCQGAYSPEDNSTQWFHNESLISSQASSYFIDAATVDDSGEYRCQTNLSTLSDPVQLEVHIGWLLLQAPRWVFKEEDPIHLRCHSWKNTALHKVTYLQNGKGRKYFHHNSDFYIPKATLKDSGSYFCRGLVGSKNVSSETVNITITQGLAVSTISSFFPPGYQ

Binder	RIA for RIIIa (V158) [fold over wild-type]
Fc polypeptide variant 136D04b (Fcγ1, in vitro translated) (other, Fc region only, in vitro translated with 35S-methionine for RIA) AHTCPPCPAPELLGGPSVFLFPPKPKDTLMISRTPEVTCVVVDVSHEDPEVKFNWYVDGVEVHNAKTKPREEQYNSTYRVVSVLTVLHQDWLNGKEYKCKVSNKALPAPIEKIISKAKGQPREPQVYTLPPSREEMTKNQVSLTCLVKGFYPSDIAVEWESNGQPENNYKTTPPVLDSDGSFFLYSKLTVDMSRWQQGNVFSCSVMHEALHNHYTQKSLSLSPGK	2.3
Fc polypeptide variant 110H08 (Fcγ1, in vitro translated) (other, Fc region only, in vitro translated with 35S-methionine for RIA) AHTCPPCPAPELLGGPSVFLFLPEPKDTLMISRTPEVTCVVVDVSHEDPEVKFNWYVDGVEVHNAKTKPREEQYNSTYRVVSVLTVLHQDWLNGKEYKCKVSNKALPAPIEKTISKAKGQPREPQVYTLPPSREEMTKNQVSLTCLVKGFYPSDIAVEWESNGQPENNYKTTPPVLGSDGSFFLYSRLTVDKSRWQQGNVFSCSVMHEALHNHYTQKSLSLSPGK	2.7
Fc polypeptide variant 125B01 (Fcγ1, in vitro translated) (other, Fc region only, in vitro translated with 35S-methionine for RIA) ANTCPPCPAPELLGGPSVFLLPPKPKDTLMISRTPEVTCVVVDVSHEDPEVKFNWYVDGVEVHNAKTKPREEQYNSTYRVVSVLTVLHQDWLNGKEYKCKVSNKALPAPIEKTISKAKGQPREPQVYTLPPSREEMTKNQVSLTCLVKGFYPSDIAVEWESNGQPENNYKATPPVLDSDGSFFLYSKLTVDKSRWQQGNVFSCSVMHEALPNHYTQKSLSLSPGK	1.3
Fc polypeptide variant 126F07 (Fcγ1, in vitro translated) (other, Fc region only, in vitro translated with 35S-methionine for RIA) AHTCPLCPAPELLGGPSVFLFPPKPKDTLMISRTPEVTCVVVDVSHEDPEVKFNWYVDGVEVHNAKAKPREEQYNSTYRVVSVLTVLHQDWLNGKEYKCKVSNKALPAPIEKTISKAKGQPREPQVYTLPPSREEMTKNQVSQTCLVKGFYPSDIAVEWESNGQPESNYKTTPPVLDSDGSFFLYSKLTVDKSRWQQGNVFSCSVMHEALHNHYTQKGLSLSPGK	1.9
Fc polypeptide variant 136G11 (Fcγ1, in vitro translated) (other, Fc region only, in vitro translated with 35S-methionine for RIA) AHTCPPCPAPELLGGPSVFLFPPKAKDTLMISRTPKVTCVVVDVSHEDPEVKFNWYVNGVEVHNARTKPREEQYDSAYRVVSVLTVLHQDWLNGKEYKCEVSNKALPAPIEKTISKAKGRPREPQVYTLPPAREEMTKNQVSPTCLVKGFYPSDIAVEWESNGQPENNYKTTPPVLDSDGSFFLYSKLTVDKSRWQQGNVFSCSVMHEALHNHYTQKSLSLSPGK	2.3
Fc polypeptide variant 125E05 (Fcγ1, in vitro translated) (other, Fc region only, in vitro translated with 35S-methionine for RIA) AHTCPPCPAPELLGGPSAFLFPPKPKDTLMISRTPEVTCVVVDVGHEDPEVKFNWYVDGVEVHNAKTKPREEQYNSTYRVVSVLTVLHQDWLNGKEYKCKVSNKALPAPIEKTISKAKEQPREPQVYTLPPSRGEMTKNQVSLTCLVKGFYPSDIAVEWESNGQPENNYKTTPPVLDSDGSFFLYSKLTVDKSRWQQGNVFSCSVMHEALHNHYTQKSLSLSPGK	4.7
Fc polypeptide variant 135A09 (Fcγ1, in vitro translated) (other, Fc region only, in vitro translated with 35S-methionine for RIA) AHTCPPCPAPELLGGPSVFLFPPKPKDTLMISRTPEVTCVVVDVSHKDPEVKFNWYVDGVEVHNAKTKPREEQYNSTHRVVSVLTVLHQDWLNGKEYKCKVSNKALPAPIEKTISKAKGRPREPQVYTLPPSREEMTKNQVSLTCLVKGFYPSDIAVEWESNGQPENNYKTTPPVLDSDGSFFLYSKLTVDKSRWQQGNIFSCSVMHEALHNHYTQKSLSLSPAK	3.4
Fc polypeptide variant 125H10 (Fcγ1, in vitro translated) (other, Fc region only, in vitro translated with 35S-methionine for RIA) AHTCPPCPAPELLGGPSVFLFPPKPKDTLTISRTPEVTCVVVDVSHEDPEVKFNWYVDGVEVHNAKTKLREEQYNSTYRVVSVLTVLHQDWLNGKEYKCKVSNKALPAPIEKTISKAKGQPREPQVYTLAPSWEEMTKNQVSLTCLVKGFYPSDIAVEWESNGQPENDYKTTPPVLDSDGSFFLYGKLTVDKSRWQQGNVFSCFVMHESLHNHYTQKSLSLSPGK	1.7
Fc polypeptide variant 136D04a (Fcγ1, in vitro translated) (other, Fc region only, in vitro translated with 35S-methionine for RIA) AHTCPPCPAPELLGGPSVFLFPPKPKDTLMISRTPEVTCVVVDVSHEDPEVKFNWYVDGVEVHNAKTKPREEQYNSTYRVVSVLTVLHQDWLNGKEYKCKVSNKALPAPIEKIISKAKGQPREPQVYTLPPSREEMTKNQVSLTCLVKGFYPSDIAVEWESNGQPENNYKTTPPVLDSDGSFFLYSKLTVDMSRWQQGNVFSCSVMHEALHNHYTQKSLSLSRGK	2.3
Fc polypeptide variant 126G05 (Fcγ1, in vitro translated) (other, Fc region only, in vitro translated with 35S-methionine for RIA) AHTCPPCPAPELLGGPSVLLFPPKPKDTLMISRTPEVTCVVVDVSHEDPEAKFNWYVDGVEVHNAKTKPREEQYNSTYRVVSVLTVLHQDWLNGKEYKCKVSNKALPAPIEKTISKAQGQPREPQVYTLPPSREEMTKNQVSLTCLVKGFYPSDIAVEWESNGQPENNYKTTPPVLDSDGSFFLYSKLTVDKSRWQQGNVFSCSVMHEALHNHYTQKSFSLSPGK	1.8

The next lines start with the values.

RIA for RIIIa (V158) [fold over wild-type]	Binder
1.7	Fc polypeptide variant 135E07 (Fcγ1, in vitro translated) (other, Fc region only, in vitro translated with 35S-methionine for RIA) AYTCPPCSAPELLGGPSVFLFPPKPKDTLMISRTPEVTCVVVDVSHEDPEVKFNWYVDGVEVHNAKTKPREEQYNSTYRVVSVLTVLHQDWLNGKEYKCKASNKALPAPIDKTISRAKGQPREPQVYTLPPSREEMTKNQVCLTCLVKGFYPSDIAVEWESNGQPENNYKTTPPVLDSDGSFFLYSKLTVDKSRWQQGNVFSCSVMHEALHNHYTQKSLSLSPGK
4.4	Fc polypeptide variant 110B09 (Fcγ1, in vitro translated) (other, Fc region only, in vitro translated with 35S-methionine for RIA) AHTCPPCPAPELLGGPSVFLFPPKPKDTLMISRTPEVTCVVVDVSHEDPEVKFDWYVDGVEVHNAKTKPQEEQYNSTYRVVSALTVLHQDWLNGKEYKCKVSNKALPAPIEKTISKAKGQPREPQVYTLPPSREEMTKNQVSLTCLVKGFYPSDVAVEWESNGQPENNYKTAPPVLDSDGSFFLYSKLTADKSRWQQGNVFSCSVMHEALHNHYTQESLSLSPGK
1.7	Fc polypeptide variant 121F02 (Fcγ1, in vitro translated) (other, Fc region only, in vitro translated with 35S-methionine for RIA) AHTCPPCPAPELLGGPSVFLSPPKLKDTLMISRTPEVTCVVVVASHEDPEVKFNWYVDGVEVHNAKTKPREEQYNSTYRVVSVLTVLHQDWLNGKEYKCKVSNKALPAPIEKTISKAKGQPREPQVYTLPPSREEMTKNQVSLTCLVKGFYPSDIAVEWENNGQPENNYKTTPPVLDSDGSFFLYSKLIVDKSRWQQGNVFSCSVMHEALHNHYTQKSLSLSPGK
1.7	Fc polypeptide variant 135C09 (Fcγ1, in vitro translated) (other, Fc region only, in vitro translated with 35S-methionine for RIA) AHACPPCPAPELLGGPSVFLFPPKPKDTLMISRTPEVTCVVVDVSHEDPEVKFNWYVDGVEVHNAKTKPREEQYNSTYCVVGVLTVLHQNWLDGKEYKCKVSNKALPAPIEKTISKAKGQPREPQVYTSPPSREEMTKNQVSLTCLVKGFYPSDIAVEWESNGQPENNYKTTPPVLDSDGSFFLYSKLTVDKSRWQQGSVFSCSVMHEALHNHYTQKSLSLSPGK
